This note sets out measurements from patent US20040023916A1 (NATIONAL INSTITUTES OF HEALTH NIH, published 2004).

For this assay, the target named is T1, mouse Plasma Cell Membrane Glycoprotein-1 (PC-1) (mouse, UniProt P06802 1-906, limits assumed).
T1 construct: Measured as NTPPPH activity, which in these cells also includes the isozyme B10; also called Enpp1; NPP1
T1 sequence (looked up): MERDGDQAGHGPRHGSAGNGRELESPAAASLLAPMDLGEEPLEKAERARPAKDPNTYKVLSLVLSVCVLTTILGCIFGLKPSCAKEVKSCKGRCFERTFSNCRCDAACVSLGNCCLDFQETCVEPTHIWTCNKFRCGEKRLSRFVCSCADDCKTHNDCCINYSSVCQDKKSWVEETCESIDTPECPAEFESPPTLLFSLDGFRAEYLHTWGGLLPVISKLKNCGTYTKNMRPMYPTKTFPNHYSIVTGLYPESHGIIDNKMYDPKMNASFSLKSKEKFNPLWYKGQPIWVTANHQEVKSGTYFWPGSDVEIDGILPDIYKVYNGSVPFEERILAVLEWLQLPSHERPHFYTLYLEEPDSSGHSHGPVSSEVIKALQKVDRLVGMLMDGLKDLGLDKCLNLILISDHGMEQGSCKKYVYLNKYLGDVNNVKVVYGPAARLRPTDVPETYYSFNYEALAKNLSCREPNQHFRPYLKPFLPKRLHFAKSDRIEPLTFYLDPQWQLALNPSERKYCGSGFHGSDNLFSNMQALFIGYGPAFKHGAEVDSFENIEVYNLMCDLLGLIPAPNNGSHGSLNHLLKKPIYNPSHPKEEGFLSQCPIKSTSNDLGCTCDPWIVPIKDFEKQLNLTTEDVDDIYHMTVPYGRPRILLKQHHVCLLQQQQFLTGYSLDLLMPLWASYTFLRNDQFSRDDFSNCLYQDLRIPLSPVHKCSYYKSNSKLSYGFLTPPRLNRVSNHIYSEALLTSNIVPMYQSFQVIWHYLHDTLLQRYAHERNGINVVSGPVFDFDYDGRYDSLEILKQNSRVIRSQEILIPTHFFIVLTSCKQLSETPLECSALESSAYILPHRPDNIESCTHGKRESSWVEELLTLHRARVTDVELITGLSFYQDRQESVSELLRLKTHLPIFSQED
In words: co-immunoprecipitation from osteoblast cell lysates, enzyme activity on beads. From the text: Paradoxically, transfection of wild-type TNAP was associated with a significant increase in cell-associated NTPPPH, and an even greater increase in MV fraction-associated NTPPPH activity in MC3T3 cells, but no significant change in activity of transglutaminase activity, which served as a control enzyme for these experiments. […] Specifically, immunoprecipitation of TNAP from osteoblast cell lysates isolated >85% of the TNAP activity, but was not associated with any co-immunoprecipitation of NTPPPH activity (starting mean cell lysate NTPPPH 1.7 Units, and alkaline phosphatase 4.3 Units; beads after immunoprecipitation with antibody to TNAP had mean of 0.09 Units NTPPPH and 4.1 Units alkaline phosphatase; beads after immunoprecipitation with antibody to PC-1 had mean of 1.3 Units NTPPPH and 0.11 Units alkaline phosphatase, n=5).

B1: mouse tissue-nonspecific alkaline phosphatase (TNAP) (enzyme, UniProt P09242 18-501, looked up)
chain: FVPEKERDPSYWRQQAQETLKNALKLQKLNTNVAKNVIMFLGDGMGVSTVTAARILKGQLHHNTGEETRLEMDKFPFVALSKTYNTNAQVPDSAGTATAYLCGVKANEGTVGVSAATERTRCNTTQGNEVTSILRWAKDAGKSVGIVTTTRVNHATPSAAYAHSADRDWYSDNEMPPEALSQGCKDIAYQLMHNIKDIDVIMGGGRKYMYPKNRTDVEYELDEKARGTRLDGLDLISIWKSFKPRHKHSHYVWNRTELLALDPSRVDYLLGLFEPGDMQYELNRNNLTDPSLSEMVEVALRILTKNLKGFFLLVEGGRIDHGHHEGKAKQALHEAVEMDQAIGKAGAMTSQKDTLTVVTADHSHVFTFGGYTPRGNSIFGLAPMVSDTDKKPFTAILYGNGPGYKVVDGERENVSMVDYAHNNYQAQSAVPLRHETHGGEDVAVFAKGPMAHLLHGVHEQNYIPHVMAYASCIGANLDHCAWAG
notes: The lysates are called only 'osteoblast cell lysates'; Some MC3T3 cells were transfected with human TNAP, so the species in this experiment is not certain; also called Akp2
For the molecule B1, the binding result is “no binding”.
